Kd data for four molecules are collected here from paper PMC8809517, “Cofactor-independent RNA editing by a synthetic S-type PPR protein”.

Assay in all cases: high-throughput RNA pulldown from lysate on Ni-NTA beads; HRP: 50 mM Tris pH 8, 150 mM NaCl, 1 mM beta-mercaptoethanol, 50 ug/ml BSA, 3 ug/ml yeast RNA, 0.5% heparin; ITC and FP: Tris pH 8, 200 mM KCl, 5% glycerol; MST: 50 mM Tris pH 8, 200 mM NaCl, 1 mM DTT, BSA, heparin, 0.05% Tween 20
What all share (details): tags: N-terminal His-eGFP

Series [1] deals with T1, GFP-9S library array, motif 4 ND N98W;D124R (synthetic construct, N98W;D124R).
T1 chain: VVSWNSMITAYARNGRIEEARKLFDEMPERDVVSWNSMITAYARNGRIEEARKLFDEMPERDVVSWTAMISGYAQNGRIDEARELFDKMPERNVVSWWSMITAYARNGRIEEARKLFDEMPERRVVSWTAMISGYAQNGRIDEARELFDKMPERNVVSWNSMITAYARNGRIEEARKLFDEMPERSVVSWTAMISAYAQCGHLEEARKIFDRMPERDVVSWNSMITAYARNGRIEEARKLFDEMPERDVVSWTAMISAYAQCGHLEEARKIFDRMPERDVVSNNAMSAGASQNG

In series [2] the target is T2, GFP-9S library array, motif 4 ND N98K;D124L (synthetic construct, N98K;D124L).
T2 chain: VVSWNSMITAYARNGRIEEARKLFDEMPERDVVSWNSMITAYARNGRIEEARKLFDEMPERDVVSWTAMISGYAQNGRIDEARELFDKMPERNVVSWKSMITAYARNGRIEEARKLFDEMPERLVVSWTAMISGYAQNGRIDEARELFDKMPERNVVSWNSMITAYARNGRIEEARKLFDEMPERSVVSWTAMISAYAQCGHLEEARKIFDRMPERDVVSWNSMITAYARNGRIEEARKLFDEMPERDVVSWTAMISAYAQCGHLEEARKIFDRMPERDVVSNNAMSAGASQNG

The target of series [3] is T3, GFP-9S library array, motif 4 ND N98Q;D124G (synthetic construct, N98Q;D124G).
T3 chain: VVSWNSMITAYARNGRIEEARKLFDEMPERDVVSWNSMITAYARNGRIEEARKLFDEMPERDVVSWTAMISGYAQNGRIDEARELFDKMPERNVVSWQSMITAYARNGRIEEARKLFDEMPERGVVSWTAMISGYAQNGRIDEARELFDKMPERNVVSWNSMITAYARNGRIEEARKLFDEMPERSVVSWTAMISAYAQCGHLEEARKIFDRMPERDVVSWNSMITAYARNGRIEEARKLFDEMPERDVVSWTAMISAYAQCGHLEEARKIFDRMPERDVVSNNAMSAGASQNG

The target of series [4] is T4, GFP-9S library array, motif 4 ND N98H;D124V (synthetic construct, N98H;D124V).
T4 chain: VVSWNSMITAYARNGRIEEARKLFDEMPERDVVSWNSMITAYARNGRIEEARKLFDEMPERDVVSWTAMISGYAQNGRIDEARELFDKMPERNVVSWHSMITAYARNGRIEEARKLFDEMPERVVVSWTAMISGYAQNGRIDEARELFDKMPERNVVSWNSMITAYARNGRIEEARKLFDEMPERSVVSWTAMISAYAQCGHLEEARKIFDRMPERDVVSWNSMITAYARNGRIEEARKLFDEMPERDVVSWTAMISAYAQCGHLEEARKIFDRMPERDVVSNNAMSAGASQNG

Series [5] addresses T5, GFP-9S library array, motif 4 ND N98T;D124S (synthetic construct, N98T;D124S).
T5 chain: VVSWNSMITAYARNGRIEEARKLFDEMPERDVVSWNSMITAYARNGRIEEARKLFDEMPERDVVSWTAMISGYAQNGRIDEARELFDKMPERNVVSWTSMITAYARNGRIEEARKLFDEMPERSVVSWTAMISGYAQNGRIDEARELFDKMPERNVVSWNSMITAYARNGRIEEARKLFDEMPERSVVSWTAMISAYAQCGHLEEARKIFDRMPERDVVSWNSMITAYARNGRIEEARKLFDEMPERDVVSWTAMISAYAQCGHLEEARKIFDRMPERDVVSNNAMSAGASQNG

B1: Cy5-rpoA (ssRNA)
RNA: AUUACACGUGA
By Kd is commonly meant the equilibrium constant for the complex coming apart. The low end stands for higher affinity, the high end for lower affinity. On to B1, for which the Kd worked out at 113 nM in series [1] (label: 5' Cy5); 83.5 nM in series [2] (label: 5' Cy5); 154 nM in series [3] (label: 5' Cy5); 81.3 nM in series [4] (label: 5' Cy5); 37 nM in series [5] (label: 5' Cy5).

B2: Cy5-rpoA-G (ssRNA)
RNA: AUUAGACGUGA
With B2, the equilibrium dissociation constant (Kd) in series [1] (label: 5' Cy5) was 90.3 nM; in series [2] (label: 5' Cy5), 73.5 nM; in series [3] (label: 5' Cy5) it was 166 nM; in series [4] (label: 5' Cy5), 95.2 nM; in series [5] (label: 5' Cy5) it was 65.5 nM.

B3: IR-rpoA-A (ssRNA)
RNA: AUUAAACGUGA
Take B3: the Kd in series [1] (label: 5' IRDye 800CW) came to 206 nM; in series [2] (label: 5' IRDye 800CW), 151 nM; in series [3] (label: 5' IRDye 800CW), 373 nM; in series [4] (label: 5' IRDye 800CW) it was 115 nM; in series [5] (label: 5' IRDye 800CW) it was 18.4 nM.

B4: IR-rpoA-U (ssRNA)
RNA: AUUAUACGUGA
In the case of B4, the dissociation constant Kd in series [1] (label: 5' IRDye 800CW) turned out to be 317 nM; in series [2] (label: 5' IRDye 800CW), 174 nM; in series [3] (label: 5' IRDye 800CW) it was 321 nM; in series [4] (label: 5' IRDye 800CW) it was 57.3 nM; in series [5] (label: 5' IRDye 800CW), 48.8 nM.
